Experimental data taken from patent US20230190752A1 (WASHINGTON UNIVERSITY, published 2023).

Target: T1, Valosin-Containing Protein phosphorylated at Ser784 (pSer^784-VCP), endogenous, from genotoxin-treated human … (human, UniProt P55072 2-806, phosphoserine at 784)
T1 construct: Endogenous protein in lysates or fixed cells (HeLa, MDA-MB-231, U2OS and others) after SN38, etoposide or HU; it is tied to the assayed protein only through that definition; also called DNA-damage-induced ~100-kDa protein
Assay: co-IP, western blot (FIG. 15B, 14B)
Experimental: Antibody-bound proteins were analyzed by Western blot for K48-ubiquitin, total VCP and pSer784-VCP. Same amount of control IgG was used to bind the etoposide-treated HeLa samples to control for non-specific binding. […] Samples were analyzed by Western blot for K48-ubiquitin, NPL4, and UFD1. Total VCP bound by the antibodies were visualized by silver staining. […] YFP-FLAG was expressed as a control.
Ser784 Phosphorylation Decreases VCP Association with NPL4/UFD1 and Polyubiquitinated Proteins: To study the regulatory mechanism of Ser784 phosphorylation, the effects on the VCP interaction with protein substrates were first examined. Total VCP (by a pan-VCP antibody) or pSer784-VCP (by 3E4) from etoposide or HU-treated HeLa cell lysates were immunoprecipitated and immunoblotted for co-absorbed K48-polyubiquitinated proteins. […] To better separate pSer784-VCP from unphosphorylated VCP, sequential pull-downs were performed from etoposide-treated HeLa cell lysates to first deplete pSer784-VCP using 3E4 and subsequently capture the remaining unphosphorylated VCP by the pan-antibody. […] Based on the levels of VCP in the input and supernatants after each pull-down, it is evident that Ser784 is phosphorylated at high stoichiometry in response to DNA damage (>50% of total VCP after overnight etoposide treatment) (FIG. 15A).

T1 sequence (P55072 2-806 limits assumed): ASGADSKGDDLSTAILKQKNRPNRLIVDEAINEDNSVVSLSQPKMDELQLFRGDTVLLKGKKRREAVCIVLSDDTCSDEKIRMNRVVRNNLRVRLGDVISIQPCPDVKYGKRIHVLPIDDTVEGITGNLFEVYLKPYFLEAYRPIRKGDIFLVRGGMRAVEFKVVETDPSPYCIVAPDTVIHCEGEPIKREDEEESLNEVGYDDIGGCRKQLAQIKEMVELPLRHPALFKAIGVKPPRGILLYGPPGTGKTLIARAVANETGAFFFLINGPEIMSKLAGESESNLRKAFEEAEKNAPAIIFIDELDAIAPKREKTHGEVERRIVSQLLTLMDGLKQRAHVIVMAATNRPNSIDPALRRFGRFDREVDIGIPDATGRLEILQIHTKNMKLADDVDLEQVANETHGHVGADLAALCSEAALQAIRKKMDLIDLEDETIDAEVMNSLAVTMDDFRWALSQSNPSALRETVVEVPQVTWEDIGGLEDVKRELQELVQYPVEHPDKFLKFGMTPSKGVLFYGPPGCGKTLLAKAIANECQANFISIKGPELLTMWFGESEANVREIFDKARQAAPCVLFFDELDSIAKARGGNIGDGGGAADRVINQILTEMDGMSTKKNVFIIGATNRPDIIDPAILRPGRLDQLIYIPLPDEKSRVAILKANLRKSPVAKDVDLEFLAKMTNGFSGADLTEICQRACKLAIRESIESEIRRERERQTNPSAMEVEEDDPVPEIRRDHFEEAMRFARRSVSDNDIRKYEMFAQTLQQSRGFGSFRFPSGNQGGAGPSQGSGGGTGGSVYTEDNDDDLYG

B1: NPL4 (other, UniProt Q8TAT6 2-608, looked up)
chain: AESIIIRVQSPDGVKRITATKRETAATFLKKVAKEFGFQNNGFSVYINRNKTGEITASSNKSLNLLKIKHGDLLFLFPSSLAGPSSEMETSVPPGFKVFGAPNVVEDEIDQYLSKQDGKIYRSRDPQLCRHGPLGKCVHCVPLEPFDEDYLNHLEPPVKHMSFHAYIRKLTGGADKGKFVALENISCKIKSGCEGHLPWPNGICTKCQPSAITLNRQKYRHVDNIMFENHTVADRFLDFWRKTGNQHFGYLYGRYTEHKDIPLGIRAEVAAIYEPPQIGTQNSLELLEDPKAEVVDEIAAKLGLRKVGWIFTDLVSEDTRKGTVRYSRNKDTYFLSSEECITAGDFQNKHPNMCRLSPDGHFGSKFVTAVATGGPDNQVHFEGYQVSNQCMALVRDECLLPCKDAPELGYAKESSSEQYVPDVFYKDVDKFGNEITQLARPLPVEYLIIDITTTFPKDPVYTFSISQNPFPIENRDVLGETQDFHSLATYLSQNTSSVFLDTISDFHLLLFLVTNEVMPLQDSISLLLEAVRTRNEELAQTWKRSEQWATIEQLCSTVGGQLPGLHEYGAVGGSTHTATAAMWACQHCTFMNQPGTGHCEMCSLPRT
notes: Detected by western blot in VCP co-immunoprecipitates; also called cofactor NPL4
- binding result: binds
